Among the data in article PMC3325965, “Structural Basis of the Chromodomain of Cbx3 Bound to Methylated Peptides from Histone H1 and G9a” (PLoS ONE, 2012) are Kd values, retold here.

Chain of human Cbx3 chromodomain (residues 29–86) (human) (Q13185 29-86): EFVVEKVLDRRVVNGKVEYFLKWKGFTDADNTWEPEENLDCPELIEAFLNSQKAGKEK
Chain of Cbx3 chromodomain (Q13185 30-88): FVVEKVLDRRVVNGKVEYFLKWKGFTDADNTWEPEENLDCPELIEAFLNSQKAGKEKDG

One test has as its target human Cbx3 chromodomain (residues 29–86) (human) (UniProt Q13185). In words: ITC; peptide solution (1–2 mM) injected into the cell with Cbx3 chromodomain (40–100 mM [sic]) in 20 mM Tris–HCl, pH 7.5, 150 mM NaCl; one-site binding model.
Conditions: not given
In general, Kd refers to the concentration at which binding is half-saturated. On to G9a(179–190) peptide, K185 dimethylated, for which the Kd came to 9 µM.

For “G9a(179–190) peptide, K185 monomethylated”, the Kd was determined as 28 µM.

In the case of “G9a(179–190) peptide, K185 trimethylated”, the Kd was 14 µM.

In the case of “histone H1.4(18–29) peptide, K26 dimethylated”, the Kd turned out to be 52 µM.

Regarding “histone H1.4(18–29) peptide, K26 trimethylated”, the Kd was determined as 21 µM.

The target in the next test is Histone H3K9me3 peptide (Homo sapiens) (UniProt P68431).
Assay: not given
The following applies: cited from earlier work.
In the case of Cbx3 chromodomain (from UniProt Q13185), the equilibrium dissociation constant (Kd) was 15 µM.
